# Changes are numbered by the printed parent chain. Names may count otherwise.
# B1: CODA238: engineered chimeric LGIC receptor, R101W in SEQ ID NO: 33 (protein)
# chain: MRCSPGGVWLALAASLLHVSLQGEFQRKLYKELVKNYNPLERPVANDSQPLTVYFSLSLLQIMDVDEKNQVLTTNIWLQMSWTDHYLQWNVSEYPGVKTVWFPDGQIWKPDILLYNSADERFDATFHTNVLVNSSGHCQYLPPGIFKSSCPMDLKNFPMDVQTCKLKFGSWSYGGWSLDLQMQEADISGYIPNGEWDLVGIPGKRSERFYECCKEPYPDVTFTVTMRRRMGYYLIQMYIPSLLIVILSWISFWINMDAAPARVGLGITTVLTMTTQSSGSRASLPKVSYVKAIDIWMAVCLLFVFSALLEYAAVNFVSRQHKELLRFRRKRRHHKSPMLNLFQEDEAGEGRFNFSAYGMGPACLQAKDGISVKGANNSNTTNPPPAPSKSPEEMRKLFIQRAKKIDKISRIGFPMAFLIFNMFYWIIYKIVRREDVHNQ
# modifications: synthetic sequence of chimeric LGIC
# B2: CODA282: engineered chimeric LGIC receptor, Y115D in SEQ ID NO: 33 (protein)
# chain: B1 chain with W101R, Y115D
# modifications: synthetic sequence of chimeric LGIC
# System: Lenti-X 293T cells
# Experiment: YFP fluorescence quenching anion reporter plate reader assay of engineered receptors stimulated with acetylcholine or a non-native ligand
# Type: cell-based
# Conditions: for percent quench of YFP fluorescence, 10 uM ach: acetylcholine 10 uM; for percent quench of YFP fluorescence, 100 uM ach: acetylcholine 100 uM; for percent quench of YFP fluorescence, 1 mM ach: acetylcholine 1 mM; for percent quench of YFP fluorescence, 3 mM ach: acetylcholine 3 mM
# Excerpt: To screen these mutant LGICs for those having novel response profiles to ligands, an anion reporter assay was developed to assess the function of the LGICs in a high throughput format. In this assay, cells expressing a YFP reporter whose fluorescence is quenched in the presence of anion are transfected with DNA encoding the channel of interest. Upon exposure to ligand, channels that are activated will flux anion, resulting in a dose-dependent quench of the YFP that can be detected on a plate reader. The greater the quench signal (i.e., the more positive the value), the higher the ligand activity on the receptor is.
# Lenti-X 293T cells (LX293T, Clontech) were maintained in DMEM containing 10% FBS and 1% penicillin/streptomycin (Invitrogen). […] Two days before assay, cells were split at a density of 20,000 cells/well in a 96-well tissue culture plate coated with poly-d lysine (Thermo Scientific). The next day, the cells were transiently transfected with 0.1 μg of DNA per well using standard Fugene protocol (Promega). On the day of assay, cells were washed 2 times in 1× extracellular solution (1×ECS: 140 mM NaCl, 5 mM KCl, 1 mM MgCl2, 2 mM CaCl2), 10 mM HEPES, 10 mM glucose, pH 7.2, mOsms 300). After the last wash, 100 μL of 1×ECS was added to the wells and the plate was incubated at 37° C. for 30 min. While incubating the plate, the drugs were diluted to a 2× concentration in 1×ECS-NaI (same components as 1×ECS except the 140 mM NaCl was replaced by 140 mM NaI). The plates were then read on a Flexstation3 (Molecular Devices). Each well, 8 wells at a time, of the plate is read for 2 min using a Flexstation3 (Molecular Devices) as follows: 1) a baseline YFP fluorescence is read for 17 sec, 2) 100 μL of ligand is added, and 3) the changes in YFP fluorescence are then measured every 1.3 sec for 1 minute and 43 seconds. The percent quench is calculated from the average fluorescence of the last 10 seconds of the read divided by the baseline average of the first 15 seconds prior to the ligand addition.
# FIGS. 1A-1J provide heat maps of the percent quench of YFP fluorescence following stimulation by various doses of either acetylcholine or the non-native ligand as indicated in the Figures. CODA71 (SEQ ID NO: 33) was used as a control, and CODA75 (SEQ ID NO: 29, a non-responding chimeric engineered receptor) was used as the negative control. Quenching of the fluorescence signal, as indicated by blue shaded cells, indicate the level of engineered receptor activation by the non-native ligand at that concentration.
molecule,measurement,setting,value
B1,YFP fluorescence quenching using CNL001,"1 nM CNL001, first column",32.42%
same,YFP fluorescence quenching using CNL001,"1 nM CNL001, second column",54.768%
same,YFP fluorescence quenching using TC-5619/Bradanicline,3 nM brd,74.7%
same,YFP fluorescence quenching using Varenicline,"3 nM var, first column",17.896
same,YFP fluorescence quenching using Varenicline,"3 nM var, second column",12.564
same,YFP fluorescence quenching using CNL001,"10 nM CNL001, first column",75.149%
same,YFP fluorescence quenching using CNL001,"10 nM CNL001, second column",75.339%
same,YFP fluorescence quenching using TC-5619/Bradanicline,30 nM brd,76.78%
same,YFP fluorescence quenching using Facinicline,30 nM fac,−19.61
same,YFP fluorescence quenching using Varenicline,"30 nM var, first column",16.263
same,YFP fluorescence quenching using Varenicline,"30 nM var, second column",22.117
same,YFP fluorescence quenching using CNL001,"50 nM CNL001, first column",75.881%
same,YFP fluorescence quenching using CNL001,"50 nM CNL001, second column",77.844%
same,YFP fluorescence quenching using ABT-126,50 nM abt,−14.97%
same,YFP fluorescence quenching using CNL001,"100 nM CNL001, first column",78%
same,YFP fluorescence quenching using CNL001,"100 nM CNL001, second column",78.575%
same,YFP fluorescence quenching using CNL002,100 nM CNL002,2.95%
same,YFP fluorescence quenching using ABT-126,100 nM abt,−14.66%
same,YFP fluorescence quenching using AZD-0328,100 nM azd0328,22.94%
same,YFP fluorescence quenching using ABT-126,300 nM abt,−16.35%
same,YFP fluorescence quenching using AZD-0328,300 nM azd0328,75.38%
same,YFP fluorescence quenching using TC-5619/Bradanicline,300 nM brd,77.01%
same,YFP fluorescence quenching using Facinicline,300 nM fac,76.54
same,YFP fluorescence quenching using Varenicline,"300 nM var, first column",77.492
same,YFP fluorescence quenching using Varenicline,"300 nM var, second column",79.056
same,YFP fluorescence quenching using Varenicline,"500 nM var, first column",80.186
same,YFP fluorescence quenching using Varenicline,"500 nM var, second column",80.065
same,YFP fluorescence quenching using CNL001,"1 uM CNL001, first column",81.126%
same,YFP fluorescence quenching using CNL001,"1 uM CNL001, second column",79.482%
same,YFP fluorescence quenching using CNL002,1 uM CNL002,67.93%
same,YFP fluorescence quenching using ABT-126,1 uM abt,50.02%
same,YFP fluorescence quenching using TC-6987,1 uM tc6987,72.47
same,YFP fluorescence quenching using Varenicline,"1 uM var, first column",81.263
same,YFP fluorescence quenching using Varenicline,"1 uM var, second column",80.702
same,YFP fluorescence quenching using TC-6987,10 uM tc6987,72.04
same,YFP fluorescence quenching using CNL002,30 uM CNL002,73.02%
same,YFP fluorescence quenching using AZD-0328,30 uM azd0328,81.8%
same,YFP fluorescence quenching using Facinicline,30 uM fac,87.94
same,YFP fluorescence quenching using TC-6987,500 uM tc6987,76.56
same,"percent quench of YFP fluorescence, 10 uM ach",,−16.58%
same,"percent quench of YFP fluorescence, 100 uM ach",,75.18%
same,"percent quench of YFP fluorescence, 1 mM ach",,78.99%
same,"percent quench of YFP fluorescence, 3 mM ach",,75.74%
B2,YFP fluorescence quenching using CNL001,"1 nM CNL001, first column",−15.837%
same,YFP fluorescence quenching using CNL001,"1 nM CNL001, second column",−6.519%
same,YFP fluorescence quenching using TC-5619/Bradanicline,1 nM brd,−0.54%
same,YFP fluorescence quenching using TC-5619/Bradanicline,3 nM brd,−7.22%
same,YFP fluorescence quenching using Varenicline,"3 nM var, first column",2.111
same,YFP fluorescence quenching using Varenicline,"3 nM var, second column",−12.265
same,YFP fluorescence quenching using CNL001,"10 nM CNL001, first column",−4.862%
same,YFP fluorescence quenching using CNL001,"10 nM CNL001, second column",−8.244%
same,YFP fluorescence quenching using TC-5619/Bradanicline,10 nM brd,−2.82%
same,YFP fluorescence quenching using TC-5619/Bradanicline,30 nM brd,−16.67%
same,YFP fluorescence quenching using Facinicline,30 nM fac,10.17
same,YFP fluorescence quenching using Varenicline,"30 nM var, first column",−4.433
same,YFP fluorescence quenching using Varenicline,"30 nM var, second column",−6.153
same,YFP fluorescence quenching using CNL001,"50 nM CNL001, first column",−3.807%
same,YFP fluorescence quenching using CNL001,"50 nM CNL001, second column",−2.871%
same,YFP fluorescence quenching using ABT-126,50 nM abt,−21.22%
same,YFP fluorescence quenching using CNL001,"100 nM CNL001, first column",−7.924%
same,YFP fluorescence quenching using CNL001,"100 nM CNL001, second column",2.11%
same,YFP fluorescence quenching using CNL002,100 nM CNL002,−9.7%
same,YFP fluorescence quenching using ABT-126,100 nM abt,−19.7%
same,YFP fluorescence quenching using AZD-0328,100 nM azd0328,3.19%
same,YFP fluorescence quenching using TC-5619/Bradanicline,100 nM brd,−0.02%
same,YFP fluorescence quenching using Facinicline,100 nM fac,24.77
same,YFP fluorescence quenching using ABT-126,300 nM abt,−15.55%
same,YFP fluorescence quenching using AZD-0328,300 nM azd0328,4.79%
same,YFP fluorescence quenching using TC-5619/Bradanicline,300 nM brd,−12.37%
same,YFP fluorescence quenching using Facinicline,300 nM fac,51.04
same,YFP fluorescence quenching using Varenicline,"300 nM var, first column",−0.861
same,YFP fluorescence quenching using Varenicline,"300 nM var, second column",−1.308
same,YFP fluorescence quenching using Varenicline,"500 nM var, first column",0.733
same,YFP fluorescence quenching using Varenicline,"500 nM var, second column",−4.633
same,YFP fluorescence quenching using CNL001,"1 uM CNL001, first column",11.047%
same,YFP fluorescence quenching using CNL001,"1 uM CNL001, second column",8.04%
same,YFP fluorescence quenching using CNL002,1 uM CNL002,−8.37%
same,YFP fluorescence quenching using ABT-126,1 uM abt,−14.31%
same,YFP fluorescence quenching using TC-5619/Bradanicline,1 uM brd,31.23%
same,YFP fluorescence quenching using TC-6987,1 uM tc6987,13.01
same,YFP fluorescence quenching using Varenicline,"1 uM var, first column",−4.512
same,YFP fluorescence quenching using Varenicline,"1 uM var, second column",0.02
same,YFP fluorescence quenching using Facinicline,10 uM fac,79.76
same,YFP fluorescence quenching using TC-6987,10 uM tc6987,14.73
same,YFP fluorescence quenching using CNL002,30 uM CNL002,3.4%
same,YFP fluorescence quenching using AZD-0328,30 uM azd0328,76.78%
same,YFP fluorescence quenching using Facinicline,30 uM fac,81.7
same,YFP fluorescence quenching using TC-6987,500 uM tc6987,14.29
same,"percent quench of YFP fluorescence, 30 nM TC-6683",TC-6683 30 nM,0.365%
same,"percent quench of YFP fluorescence, 300 nM TC-6683",TC-6683 300 nM,−6.865%
same,"percent quench of YFP fluorescence, 3 uM TC-6683",TC-6683 3 uM,−4.927%
same,"percent quench of YFP fluorescence, 30 uM TC-6683",TC-6683 30 uM,−11.259%
same,"percent quench of YFP fluorescence, 100 uM TC-6683",TC-6683 100 uM,−11.894%
same,"percent quench of YFP fluorescence, 10 uM ach",,6.81%
same,"percent quench of YFP fluorescence, 100 uM ach",,1.19%
same,"percent quench of YFP fluorescence, 1 mM ach",,−14.05%
same,"percent quench of YFP fluorescence, 3 mM ach",,2.37%
